Strand notation (5' to 3'): a small letter for the sugar, then the base; units joined by * are phosphorothioate-linked, units joined directly phosphodiester-linked; [ ] holds rarer units or linkages, { } end groups; capitals alone tell only the bases. m = 2'-O-methyl; r = 2'-OH (RNA)
Tested on: mouse TTR
Test: Serum mouse TTR (ELISA) after LNP dosing of mice with murine TTR
Format: in vivo
Details: wild type CD-1 mice; LNP 45:44:9:2, N:P 6; 1, 0.3, 0.1, 0.03, 0.01 mg/kg
Experimental: Unless otherwise noted, CD-1 female mice, ranging from 6-10 weeks of age were used in each study. Animals were weighed and grouped according to body weight for preparing dosing solutions based on group average weight. LNPs were dosed via the lateral tail vein in a volume of 0.2 mL per animal (approximately 10 mL per kilogram body weight). […] Body weight was measured at twenty-four hours post-administration, and animals were euthanized at various time points by exsanguination via cardiac puncture under isoflourane anesthesia. Blood was collected into serum separator tubes or into tubes containing buffered sodium citrate for plasma as described herein. […]
Blood was collected and the serum was isolated as indicated. The total mouse TTR serum levels were determined using a Mouse Prealbumin (Transthyretin) ELISA Kit (Aviva Systems Biology, Cat. OKIA00111); rat TTR serum levels were measured using a rat specific ELISA kit (Aviva Systems Biology catalog number OKIA00159); human TTR serum levels were measured using a human specific ELISA kit (Aviva Systems Biology catalog number OKIA00081); each according to manufacture's protocol. […] The absorbance of the contents was measured on the Spectramax M5 plate reader with analysis using SoftmaxPro version 7.0 software. […]

B1: G000502: TTR Cyno specific sgRNA modified sequence, SEQ ID NO: 114; guide sequence of CR000689; cross homologous between mouse and cyno (nucleic acid)
guide: mA*mC*mA*rCrArArArUrArCrCrArGrUrCrCrArGrCrGrGrUrUrUrUrArGrAmGmCmUmAmGmAmAmAmUmAmGmCrArArGrUrUrArArArArUrArArGrGrCrUrArGrUrCrCrGrUrUrArUrCrAmAmCmUmUmGmAmAmAmAmAmGmUmGmGmCmAmCmCmGmAmGmUmCmGmGmUmGmCmU*mU*mU*mU
serum mouse TTR levels, dose response: dose response
